Assay results published in PMC10699770 (Science Advances, 2023).

Target: full-length NAIP5 with an N-terminal Flag tag (mouse, UniProt Q9R016 1-1403)
Test: cryo-EM structure

Chain of full-length NAIP5 with an N-terminal Flag tag (Q9R016 whole entry): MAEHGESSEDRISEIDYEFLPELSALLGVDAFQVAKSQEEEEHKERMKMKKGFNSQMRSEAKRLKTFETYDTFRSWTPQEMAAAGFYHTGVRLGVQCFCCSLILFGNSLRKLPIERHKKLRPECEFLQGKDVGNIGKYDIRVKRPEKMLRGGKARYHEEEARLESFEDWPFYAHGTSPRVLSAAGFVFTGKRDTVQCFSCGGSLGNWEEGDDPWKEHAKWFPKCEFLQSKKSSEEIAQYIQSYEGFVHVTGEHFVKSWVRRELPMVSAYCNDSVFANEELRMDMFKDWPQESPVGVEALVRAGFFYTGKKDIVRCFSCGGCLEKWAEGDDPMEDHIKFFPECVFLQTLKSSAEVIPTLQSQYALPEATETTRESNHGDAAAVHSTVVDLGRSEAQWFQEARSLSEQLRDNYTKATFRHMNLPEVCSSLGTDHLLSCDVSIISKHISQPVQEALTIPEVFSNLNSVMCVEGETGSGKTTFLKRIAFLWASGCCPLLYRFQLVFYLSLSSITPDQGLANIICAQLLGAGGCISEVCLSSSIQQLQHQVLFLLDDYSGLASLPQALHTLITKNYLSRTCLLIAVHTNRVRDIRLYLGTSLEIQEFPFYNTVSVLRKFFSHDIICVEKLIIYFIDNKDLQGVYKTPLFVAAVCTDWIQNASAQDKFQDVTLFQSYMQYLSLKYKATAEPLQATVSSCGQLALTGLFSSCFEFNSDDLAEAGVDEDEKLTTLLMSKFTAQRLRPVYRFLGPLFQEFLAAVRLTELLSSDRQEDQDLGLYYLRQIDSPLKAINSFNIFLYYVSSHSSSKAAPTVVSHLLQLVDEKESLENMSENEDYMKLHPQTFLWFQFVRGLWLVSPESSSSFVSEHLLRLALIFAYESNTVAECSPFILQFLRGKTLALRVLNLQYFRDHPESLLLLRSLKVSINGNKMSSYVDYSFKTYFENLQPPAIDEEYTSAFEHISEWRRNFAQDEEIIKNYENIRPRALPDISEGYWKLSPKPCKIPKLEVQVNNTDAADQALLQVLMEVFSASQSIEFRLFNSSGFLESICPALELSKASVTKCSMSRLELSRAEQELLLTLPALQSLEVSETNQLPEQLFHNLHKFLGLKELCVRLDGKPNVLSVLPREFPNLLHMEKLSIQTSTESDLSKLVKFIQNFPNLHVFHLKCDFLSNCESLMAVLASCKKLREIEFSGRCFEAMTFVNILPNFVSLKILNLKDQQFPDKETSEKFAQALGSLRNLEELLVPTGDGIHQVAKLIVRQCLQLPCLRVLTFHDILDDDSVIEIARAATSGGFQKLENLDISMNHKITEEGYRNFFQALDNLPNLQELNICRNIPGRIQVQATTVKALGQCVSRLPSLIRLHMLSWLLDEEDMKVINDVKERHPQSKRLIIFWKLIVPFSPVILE

B1: full-length S. typhimurium flagellin FliC with N-terminal His tag (natural protein)
chain: MAQVINTNSLSLLTQNNLNKSQSALGTAIERLSSGLRINSAKDDAAGQAIANRFTANIKGLTQASRNANDGISIAQTTEGALNEINNNLQRVRELAVQSANSTNSQSDLDSIQAEITQRLNEIDRVSGQTQFNGVKVLAQDNTLTIQVGANDGETIDIDLKQINSQTLGLDTLNVQQKYKVSDTAATVTGYADTTIALDNSTFKASATGLGGTDQKIDGDLKFDDTTGKYYAKVTVTGGTGKDGYYEVSVDKTNGEVTLAGGATSPLTGGLPATATEDVKNVQVANADLTEAKAALTAAGVTGTASVVKMSYTDNNGKTIDGGLAVKVGDDYYSATQNKDGSISINTTKYTADDGTSKTALNKLGGADGKTEVVSIGGKTYAASKAEGHNFKAQPDLAEAAATTTENPLQKIDAALAQVDTLRSDLGAVQNRFNSAITNLGNTVNNLTSARSRIEDSDYATEVSNMSRAQILQQAGTSVLAQANQVPQNVLSLLR
B1: binds.
